Experimental data as given in patent US20190330320A1.

Columns and labels:
[1] = target: hyperphosphorylated human tau P301L (4R0N) from rTg4510 mouse brain (64 and 70 kDa species) (human) (UniProt P10636); assay: binding to P301L human mutant tau isolated from 10 month old Tg4510 mice
[2] = target: pathological hyperphosphorylated tau from human Alzheimer's disease brain (AD-P3 antigens) (human) (UniProt P10636); assay: fluid phase inhibition of Ptau antigen capture in C10-2 coated plate
[3] = target: pathological hyperphosphorylated tau from human Alzheimer's disease brain (AD-P3 antigens) (human) (UniProt P10636); assay: fluid phase inhibition of AD-P3 tau capture on MSD plates coated with mouse C10-2; two-site fit, low affinity part
[4] = target: pathological hyperphosphorylated tau from human Alzheimer's disease brain (AD-P3 antigens) (human) (UniProt P10636); assay: fluid phase inhibition of AD-P3 tau capture on MSD plates coated with mouse C10-2; two-site fit, high affinity part
[5] = target: pathological hyperphosphorylated tau from human Alzheimer's disease brain (AD-P3 antigens) (human) (UniProt P10636); assay: fluid phase inhibition of AD-P3 tau capture on MSD plates coated with mouse C10-2; two-site fit

Sequence of pathological hyperphosphorylated tau from human Alzheimer's disease brain (AD-P3 antigens) (human) (P10636 other isoform, or with tags, fused parts or gaps limits assumed): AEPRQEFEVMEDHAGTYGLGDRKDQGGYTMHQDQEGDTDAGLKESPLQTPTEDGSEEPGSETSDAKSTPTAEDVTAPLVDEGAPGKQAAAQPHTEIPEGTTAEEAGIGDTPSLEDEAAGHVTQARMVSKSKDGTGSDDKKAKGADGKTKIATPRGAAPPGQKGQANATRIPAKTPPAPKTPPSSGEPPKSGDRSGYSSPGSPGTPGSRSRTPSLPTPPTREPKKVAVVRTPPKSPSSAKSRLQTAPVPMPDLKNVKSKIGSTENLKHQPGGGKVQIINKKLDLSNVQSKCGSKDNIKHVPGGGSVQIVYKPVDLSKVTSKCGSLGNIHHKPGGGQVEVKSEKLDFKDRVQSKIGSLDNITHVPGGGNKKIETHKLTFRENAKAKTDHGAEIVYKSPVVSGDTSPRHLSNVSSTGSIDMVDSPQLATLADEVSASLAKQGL
Sequence of hyperphosphorylated human tau P301L (4R0N) from rTg4510 mouse brain (64 and 70 kDa species) (human) (P10636 other isoform, or with tags, fused parts or gaps P301L P301L): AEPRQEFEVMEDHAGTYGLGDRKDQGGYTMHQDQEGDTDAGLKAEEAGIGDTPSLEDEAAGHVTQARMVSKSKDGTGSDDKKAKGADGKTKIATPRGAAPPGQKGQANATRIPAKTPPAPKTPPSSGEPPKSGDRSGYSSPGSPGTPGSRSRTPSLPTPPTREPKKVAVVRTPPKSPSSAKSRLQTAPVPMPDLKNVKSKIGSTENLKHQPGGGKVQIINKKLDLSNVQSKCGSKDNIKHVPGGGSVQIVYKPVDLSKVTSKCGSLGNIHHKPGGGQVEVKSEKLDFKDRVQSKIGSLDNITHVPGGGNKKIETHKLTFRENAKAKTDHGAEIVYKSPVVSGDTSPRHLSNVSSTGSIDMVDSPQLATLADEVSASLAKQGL
Sequence of IPN002 (antibody) (VH): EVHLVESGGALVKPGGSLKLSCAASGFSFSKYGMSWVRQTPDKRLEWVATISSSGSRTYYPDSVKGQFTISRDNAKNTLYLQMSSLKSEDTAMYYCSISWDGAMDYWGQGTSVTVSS
Sequence of IPN002 (antibody) (VL): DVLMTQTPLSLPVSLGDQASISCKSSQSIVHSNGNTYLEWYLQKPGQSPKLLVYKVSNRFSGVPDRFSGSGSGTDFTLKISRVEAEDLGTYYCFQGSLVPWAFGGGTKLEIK
Sequence of HJ8.5 (antibody) (VH): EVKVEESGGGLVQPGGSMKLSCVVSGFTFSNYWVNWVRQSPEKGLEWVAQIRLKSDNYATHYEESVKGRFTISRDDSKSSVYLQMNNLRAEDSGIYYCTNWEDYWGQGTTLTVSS
Sequence of HJ8.5 (antibody) (VL): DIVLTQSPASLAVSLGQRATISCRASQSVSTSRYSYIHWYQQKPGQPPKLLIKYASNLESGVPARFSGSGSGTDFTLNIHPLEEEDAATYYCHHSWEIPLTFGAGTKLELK

Substance HJ8.5 (antibody) has a TG/wt (binding to P301L tau from Tg4510 mice over wild type) [1] of 51.

For PHF-13 (antibody), the IC50 [2] was 500 to 1000 nM.

Substance IPN002 (antibody) has a TG/wt (binding to P301L tau from Tg4510 mice over wild type) [1] of 37.

In the case of Antibody C10-2 (humanized C10-2), the IC50 [3] is reported as 630 nM, the IC50 [4] is reported as 14 nM and the share of the high affinity binding in the total binding [5] is reported as < 25%.
